The values below come from publication PMC5658772 (Emerging Microbes & Infections, 2017).

In this assay the target is T1, ZIKV envelope protein domain III-hFc fusion protein (ZIKV-DIII-hFc) (Zika virus strain MR766, UniProt Q32ZE1).
T1 construct: source: 293 FreeStyle, transient, purified from conditioned culture medium
Put plainly: BLI; Octet-Red96, 37 °C; […] (30 μg/mL, sodium acetate pH 5.0) […]; association 300 s, dissociation 1500 s; 1:1 Langmuir model; […]. The note with it: both partners purified. A general note: Biolayer interferometry detects binding as a change in optical thickness at a sensor tip.

B1: m301 IgG1 (antibody, V domains shown)
VH: EVQLVQSGGGLVKPGGSLRLSCAASGFTFSSYGMHWVRQAPGKGLEWVAVISYDGSNKYYADSVKGRFTISRDNSKNTLYLQMNSLRAEDTAVYYCAKEVGRSYFDYWGQGTLVTVSS
VL: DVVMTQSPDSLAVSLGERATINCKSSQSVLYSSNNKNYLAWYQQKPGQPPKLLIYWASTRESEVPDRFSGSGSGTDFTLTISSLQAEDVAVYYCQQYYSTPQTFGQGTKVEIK
notes: also called m301 mAb; IgG m301; source: Expi293, transient, purified (protein G)
B1: the Kd (in general, the constant that tells how readily two partners part at equilibrium) came to 0.2 nM and the koff (usually a measure of how fast the partners let go of each other) was determined as 4e-05 s⁻¹.

B2: m302 IgG1 (antibody, V domains shown)
VH: EVQLVQSGGGLVKPGRSLRLSCAASGFTFSSYAMHWVRQAPGKGLEWVAVISYDGSNKYYADSVKGRFTISRDNSKNTLYLQMNSLRAEDTAVYYCAREIGDYYYYGMDVWGQGTLVTVSS
VL: EIVMTQSPATLSLSPGERATLSCRASQSVSSYLAWYQQKPGQAPRLLIYDASNRATGIPARFSGSGSGTDFTLTISSLQPEDFATYYCQQSYSTPLTFGGGTKVEIK
notes: also called m302 mAb; IgG m302; source: Expi293, transient, purified (protein G)
Take B2: the Kd turned out to be 47 nM and the off-rate constant (koff) amounted to 0.002 s⁻¹.
